Experimental data reported in the supplement of paper PMC7877785.
± gives the uncertainty stated by the source.

Assay: self-splicing fitness, log relative to wild type (ln ratio); higher = more splicing; Tetrahymena group I intron in knt gene, E. coli kanamycin selection, DiMSum; sequences stand for … in CUCUCU…GGAGGGAAAAGUUAUCAGGCAUGCACCUGGUAGCUAGUCUUUAAACCAAUAGAUUGCAUCGGUUUAAAAGGCAAGACCGUCAAAUUGCGGGAAAGGGGUCAACAGCCGUUCAGUACCAAGUCUCAGGGGAAACUUUGAGAUGGCCUUGCAAAGGGUAUGGUAAUAAGCUGACGGACAUGGUCCUAACCACGCAGCCAAGUCCUAAGUCAACAGAUCUUCUGUUGAUAUGGAUGCAGUUCACAGACUAAAUGUCGGUCGGGGAAGAUGUAUUCUUCUCAUAAGAUAUAGUCGGACCUCUCCUUAAUGGGAGCUAGCGGAUGAAGUGAUGCAACACUGGAGCCGCUGGGAACUAAUUUGUAUGCGAAAGUAUAUUGAUUAGUUUUGGAGUACUCGUGGUCG
Summary of the method: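 A randomised library covering all eight P1ex-region intron nucleotides was built with the intron in the knt kanamycin-resistance gene on pET-22b(+) and held in E. coli BL21(DE3). Cells were grown overnight at 37°C or 30°C on LB agar, with or without 25 μg/mL kanamycin, plus 100 μg/mL carbenicillin, 50 μM IPTG and 0.2% rhamnose, and pooled colonies were amplicon-sequenced on an Illumina HiSeq 2500. DiMSum fitness is the error-weighted combination of wild-type-normalised replicate fold changes, kanamycin versus none.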

Row | Sequence | self-splicing fitness (ln) (30 °C) | self-splicing fitness (ln) (37 °C)
1 | UAGAAGCAAUAUUACGCGCG | -0.301 ± 0.12 | -0.204 ± 0.13
2 | GUUAAGCAAUAUUACGCAAA | -2.21 ± 0.27 | -2.21 ± 0.22
3 | UACAAGCAAUAUUACGUGAU | -3.16 ± 0.14 | -1.34 ± 0.14
4 | UCAAAGCAAUAUUACGCAGC | -3.94 ± 0.29 | -2.72 ± 0.17
5 | GACGAGCAAUAUUACGAUUC | -1.39 ± 0.11 | -1.47 ± 0.17
6 | AGGGAGCAAUAUUACGGCGA | -3.35 ± 0.4 | -2.62 ± 0.44
7 | GUACAGCAAUAUUACGCUGC | -4.33 ± 0.26 | -2.74 ± 0.3
8 | AAGUAGCAAUAUUACGGCGA | -0.41 ± 0.11 | -0.0374 ± 0.11
9 | GACGAGCAAUAUUACGCAAU | – | -2.74 ± 0.31
10 | UAACAGCAAUAUUACGUGGG | -4.35 ± 0.15 | -2.75 ± 0.091
11 | UACGAGCAAUAUUACGGUGG | -3.62 ± 0.14 | -2.13 ± 0.11
12 | AACCAGCAAUAUUACGGGGU | -3.73 ± 0.14 | -2.88 ± 0.16
13 | CGGAAGCAAUAUUACGUGGU | -3.62 ± 0.21 | -1.94 ± 0.2
14 | AGCCAGCAAUAUUACGAGCC | – | -0.75 ± 0.32
15 | GCUCAGCAAUAUUACGCAAG | -2.83 ± 0.42 | -1.69 ± 0.23
16 | AAAUAGCAAUAUUACGAGGU | -2.99 ± 0.26 | -1.28 ± 0.19
17 | ACAAAGCAAUAUUACGUUAC | -4.4 ± 0.22 | -2.42 ± 0.22
18 | ACUCAGCAAUAUUACGUUGU | -3.45 ± 0.11 | -2.23 ± 0.13
19 | GAUUAGCAAUAUUACGCCGA | -1.03 ± 0.42 | –
20 | UUCGAGCAAUAUUACGAAUA | – | -1.26 ± 0.3
21 | GCUAAGCAAUAUUACGAUCG | -1.1 ± 0.1 | -0.997 ± 0.12
22 | UUCGAGCAAUAUUACGACUU | -3.32 ± 0.29 | -1.49 ± 0.29
23 | CACAAGCAAUAUUACGUGAU | -4.03 ± 0.15 | -2.5 ± 0.15
24 | UUGGAGCAAUAUUACGUGCA | – | -1.94 ± 0.31
25 | UGCGAGCAAUAUUACGUGCA | -2.46 ± 0.2 | -1.35 ± 0.21

Row | Sequence | self-splicing fitness (ln) (30 °C) | self-splicing fitness (ln) (37 °C)
26 | GGCGAGCAAUAUUACGCUAG | -3.88 ± 0.28 | -2.82 ± 0.23
27 | UCCGAGCAAUAUUACGAGUA | -1.98 ± 0.16 | -1.1 ± 0.12
28 | CACGAGCAAUAUUACGUAGU | -3.22 ± 0.17 | -2.73 ± 0.26
29 | UAUUAGCAAUAUUACGCUCU | -1.02 ± 0.17 | -0.332 ± 0.32
30 | UAUAAGCAAUAUUACGCGAU | -3.6 ± 0.21 | -3.37 ± 0.22
31 | CAUGAGCAAUAUUACGGGGG | -2.64 ± 0.23 | -2.64 ± 0.3
32 | AGAGAGCAAUAUUACGUCUC | -2.95 ± 0.43 | -3.37 ± 0.47
33 | AUUAAGCAAUAUUACGCCGC | – | -2.04 ± 0.47
34 | CAGCAGCAAUAUUACGCGCU | -3.39 ± 0.21 | -2.45 ± 0.16
35 | UACCAGCAAUAUUACGAUUU | -1.25 ± 0.076 | -0.288 ± 0.075
36 | GGGAAGCAAUAUUACGAUGC | 0.369 ± 0.12 | 0.306 ± 0.13
37 | CUCCAGCAAUAUUACGGCUC | -2.78 ± 0.23 | -1.57 ± 0.17
38 | ACUGAGCAAUAUUACGAGGC | -3.07 ± 0.23 | -2.59 ± 0.36
39 | UCAUAGCAAUAUUACGGUAC | – | -3.21 ± 0.33
40 | UCUUAGCAAUAUUACGUACG | -1.58 ± 0.083 | -0.522 ± 0.088
41 | CUAUAGCAAUAUUACGAUUC | -3.51 ± 0.26 | -1.71 ± 0.21
42 | GACCAGCAAUAUUACGAAAA | -2.05 ± 0.12 | -0.391 ± 0.11
43 | UGUUAGCAAUAUUACGUUAC | -1.97 ± 0.43 | –
44 | GAGAAGCAAUAUUACGUCUU | -2.33 ± 0.23 | -2.92 ± 0.36
45 | CCGGAGCAAUAUUACGCUUC | -2.55 ± 0.24 | -0.412 ± 0.19
46 | ACGGAGCAAUAUUACGACCA | -3.73 ± 0.4 | -1.08 ± 0.24
47 | CACUAGCAAUAUUACGAUGU | -4.05 ± 0.37 | -1.63 ± 0.19
48 | CGGUAGCAAUAUUACGAUGU | -0.932 ± 0.093 | -0.763 ± 0.15
49 | GUUAAGCAAUAUUACGCAUC | -2.3 ± 0.1 | -0.951 ± 0.095
50 | GGCGAGCAAUAUUACGCAUG | -1.32 ± 0.22 | -0.82 ± 0.23
